target: HLA-A*1101 (human); assay: competition with 125I-labelled standard peptide for purified HLA, gel filtration; conditions: not given

| Binder | binding affinity ratio (IC50 of standard peptide / IC50 of test peptide) | relative binding ratio (IC50 of standard peptide / IC50 of test peptide) |
| --- | --- | --- |
| NIRGRWTGR (modifications not checked) | 0.0005 | – |
| CMCCKCEARIK (modifications not checked) [HPV18 E7 peptide … (position 63, 11 amino acids)] | – | 0.0002 |
| EVYDFAFR (modifications not checked) [HPV16 E6 peptide EVYDFAFR] | 0.0025 | – |
| RARQERLQR (modifications not checked) [HPV18 E6 peptide … (position 144, 9 amino acids)] | – | 0.0002 |
| IILECVYCK (modifications not checked) | 0.019 | – |
| LLIRCINCQK (modifications not checked) | 0.18 | – |
| DIILECVYCK (modifications not checked) | 0.021 | – |
| PLCPEEKQR (modifications not checked) | 0.0005 | – |
| GTTLEQQYNK (modifications not checked) | 0.07 | – |
| KLRHLNEKRR (modifications not checked) [HPV18 E6 peptide … (position 117, 10 amino acids)] | – | 0.0001 |
| CVQSTHVDIR (modifications not checked) | 0.0001 | – |
| CVYCKQQLLR (modifications not checked) | 0.0005 | – |
| WTGRCMSCCR (modifications not checked) | 0.0008 | – |
| AVCDKCLK (modifications not checked) [HPV16 E6 peptide AVCDKCLK] | 0.011 | – |

same assay, conditions: remark: other sources report otherwise

| Binder | binding affinity ratio (IC50 of standard peptide / IC50 of test peptide) |
| --- | --- |
| GIVCPICSQK (modifications not checked) | 0.067 |
| AMFQDPQER (modifications not checked) | 0.032 |

target: HLA-A*0301 (human); assay: as above; conditions: not given

| Binder | binding affinity ratio (IC50 of standard peptide / IC50 of test peptide) | relative binding ratio (IC50 of standard peptide / IC50 of test peptide) |
| --- | --- | --- |
| NIRGRWTGR (modifications not checked) | 0.0014 | – |
| CMCCKCEARIK (modifications not checked) [HPV18 E7 peptide … (position 63, 11 amino acids)] | – | 0.0014 |
| EVYDFAFR (modifications not checked) [HPV16 E6 peptide EVYDFAFR] | 0.0004 | – |
| IILECVYCK (modifications not checked) | 0.0016 | – |
| LLIRCINCQK (modifications not checked) | 0.021 | – |
| DIILECVYCK (modifications not checked) | 0.0065 | – |
| PLCPEEKQR (modifications not checked) | 0.0002 | – |
| GTTLEQQYNK (modifications not checked) | 0.0002 | – |
| CVQSTHVDIR (modifications not checked) | 0.0049 | – |
| CVYCKQQLLR (modifications not checked) | 0.0001 | – |
| WTGRCMSCCR (modifications not checked) | 0.0003 | – |
| AVCDKCLK (modifications not checked) [HPV16 E6 peptide AVCDKCLK] | 0.0053 | – |

same assay, conditions: remark: other sources report otherwise

| Binder | binding affinity ratio (IC50 of standard peptide / IC50 of test peptide) |
| --- | --- |
| GIVCPICSQK (modifications not checked) | 0.0003 |
| AMFQDPQER (modifications not checked) | 0.017 |

target: HLA-A*0301 (human); assay: competition with 125I-labelled standard peptide for purified HLA-A*0301, gel filtration; conditions: not given

| Binder | relative binding ratio (IC50 of standard peptide / IC50 of test peptide) (ratio to standard peptide) | binding affinity ratio (IC50 of standard peptide / IC50 of test peptide) | binding affinity ratio (IC50 of the standard peptide / IC50 of the test peptide) | binding affinity ratio (IC50 of standard peptide / IC50 of test peptide) (ratio relative to standard peptide) | relative binding ratio (IC50 of standard peptide / IC50 of test peptide) |
| --- | --- | --- | --- | --- | --- |
| DSIPHAACH (modifications not checked) [HPV18 E6 peptide … (position 58, 9 amino acids)] | 0.0005 | – | – | – | – |
| TGRCMSCCR (modifications not checked) [… (HPV16 E6, position 140)] | 0.0003 | – | – | – | – |
| NIHPAKDNR (modifications not checked) [… (HPV18 E1, position 574, 9 amino acids)] | – | 0.0005 | – | – | – |
| VCDKCLKFY (modifications not checked) [… (HPV16 E6, position 69)] | 0.0002 | – | – | – | – |
| ELRHYSDSVY (modifications not checked) [HPV18 E6 peptide … (position 77, 10 amino acids)] | 0.0002 | – | – | – | – |
| GDTPEWIQR (modifications not checked) [HPV18 E1 341 …] | – | 0.0008 | – | – | – |
| ISLNSGQKK (modifications not checked) [HPV18 E1 116 …] | – | 0.0003 | – | – | – |
| LTTNIHPAK (modifications not checked) [… (HPV18 E1, position 571, 9 amino acids)] | – | 0.091 | – | – | – |
| CMSCCRSSR (modifications not checked) [HPV16 E6 position 143 peptide …] | – | – | 0.0033 | – | – |
| EGTGCNGWFY (modifications not checked) [HPV31 E1 peptide … (position 10, 10 amino acids)] | – | – | – | 0.0005 | – |
| AGHYRGQCH (modifications not checked) [HPV18 E6 peptide … (position 131, 9 amino acids)] | 0.0005 | – | – | – | – |
| WTGRCMSCCR (modifications not checked) [… (HPV16 E6, position 139)] | 0.0003 | – | – | – | – |
| EGTGCNGWF (modifications not checked) [HPV31 E1 peptide … (position 10, 9 amino acids)] | – | – | – | 0.0008 | – |
| NSGQKKAKR (modifications not checked) [… (HPV18 E1, position 119, 9 amino acids)] | – | 0.0005 | – | – | – |
| SCCRSSRTR (modifications not checked) [… (HPV16 E6, position 145)] | 0.0003 | – | – | – | – |
| PLCPEEKQR (modifications not checked) [… (HPV16 E6, position 116)] | 0.0002 | – | – | – | – |
| RFEDPTRRPY (modifications not checked) [HPV18 E6 peptide … (position 3, 10 amino acids)] | – | – | – | – | 0.0002 |
| GVLILALLR (modifications not checked) [HPV18 E1 279 …] | – | 0.0058 | – | – | – |
| LCPEEKQRH (modifications not checked) [… (HPV16 E6, position 117)] | 0.0003 | – | – | – | – |
| NIRGRWTGR (modifications not checked) [… (HPV16 E6, position 134)] | 0.0014 | – | – | – | – |

same assay, conditions: remark: other sources report otherwise

| Binder | relative binding ratio (IC50 of standard peptide / IC50 of test peptide) (ratio to standard peptide) |
| --- | --- |
| IVYRDGNPY (modifications not checked) [… (HPV16 E6, position 59)] | 0.15 |
| HLDKKQRFH (modifications not checked) [… (HPV16 E6, position 125)] | 0.0009 |

same assay, conditions: scale: ratio

| Binder | relative binding ratio (A*0301) |
| --- | --- |
| KSFLKGTPK (modifications not checked) [HPV18 E1 peptide … (position 468, 9 amino acids)] | 0.0003 |
| LILALLRYK (modifications not checked) [HPV18 E1 peptide … (position 281, 9 amino acids)] | 0.27 |
| KLRAGQNHR (modifications not checked) [HPV18 E1 peptide … (position 647, 9 amino acids)] | 0.3 |

Reference: patent US7026443
